Source: publication PMC9482650, “Quantitative fragmentomics allow affinity mapping of interactomes” (Nature Communications, 2022)

What was measured:
Test in all cases: holdup assay
Design in all cases: key: below the threshold = too weak to quantify, mostly under pKd 3.1 to 4
Conditions in all cases: plain residues with an end cap or a label only (N-terminal biotin on a linker: ttds)
APBA1_1, Q02410 = target: T1, APBA1_1, Q02410
T1 sequence (Q02410 651-752, limits assumed, looked up): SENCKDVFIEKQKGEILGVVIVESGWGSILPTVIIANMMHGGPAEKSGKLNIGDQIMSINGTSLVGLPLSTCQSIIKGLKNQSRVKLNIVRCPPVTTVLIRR

CASK, O14936 = target: CASK, O14936
Sequence of CASK, O14936 (O14936 487-570): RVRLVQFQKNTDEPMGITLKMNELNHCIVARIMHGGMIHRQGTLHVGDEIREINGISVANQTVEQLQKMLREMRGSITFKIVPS

DLG3_1, Q92796 = target: T2, DLG3_1, Q92796
T2 sequence (Q92796 125-227, limits assumed, looked up): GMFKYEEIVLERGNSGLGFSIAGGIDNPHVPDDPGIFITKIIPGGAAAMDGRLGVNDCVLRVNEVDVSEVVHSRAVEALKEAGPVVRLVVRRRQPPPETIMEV

DLG3_2, Q92796 = target: T3, DLG3_2, Q92796
T3 sequence (Q92796 221-321, limits assumed, looked up): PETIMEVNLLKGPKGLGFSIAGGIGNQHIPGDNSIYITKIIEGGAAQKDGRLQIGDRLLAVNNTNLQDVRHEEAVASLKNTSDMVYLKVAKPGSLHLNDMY

DLG3_3, Q92796 = target: T4, DLG3_3, Q92796
T4 sequence (Q92796 374-475, limits assumed, looked up): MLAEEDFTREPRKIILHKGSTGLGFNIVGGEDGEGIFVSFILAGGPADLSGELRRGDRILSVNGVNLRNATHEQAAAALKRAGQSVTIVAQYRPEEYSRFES

DLG4_2, P78352 = target: DLG4_2, P78352
Sequence of DLG4_2, P78352 (P78352 155-259): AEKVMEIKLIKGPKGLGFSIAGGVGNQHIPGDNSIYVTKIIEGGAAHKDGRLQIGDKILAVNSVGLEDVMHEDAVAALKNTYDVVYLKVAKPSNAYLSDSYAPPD

FRMPD2_3, Q68DX3 = target: FRMPD2_3, Q68DX3
Sequence of FRMPD2_3, Q68DX3 (Q68DX3 1073-1166): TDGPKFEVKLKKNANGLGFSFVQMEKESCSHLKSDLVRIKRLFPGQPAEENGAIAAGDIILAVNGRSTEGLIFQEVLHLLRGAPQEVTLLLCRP

GIPC2, Q8TF65 = target: GIPC2, Q8TF65
Sequence of GIPC2, Q8TF65 (Q8TF65 112-203): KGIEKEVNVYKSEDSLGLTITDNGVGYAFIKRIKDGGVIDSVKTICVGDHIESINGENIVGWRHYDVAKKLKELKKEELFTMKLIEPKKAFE

GRIP1_2, Q9Y3R0 = target: T5, GRIP1_2, Q9Y3R0
T5 sequence (Q9Y3R0 145-248, limits assumed, looked up): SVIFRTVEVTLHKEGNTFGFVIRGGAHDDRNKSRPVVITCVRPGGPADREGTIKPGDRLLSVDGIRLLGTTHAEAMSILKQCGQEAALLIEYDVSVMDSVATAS

Inadl_3, Q8NI35 = target: Inadl_3, Q8NI35
Sequence of Inadl_3, Q8NI35 (Q8NI35 359-469): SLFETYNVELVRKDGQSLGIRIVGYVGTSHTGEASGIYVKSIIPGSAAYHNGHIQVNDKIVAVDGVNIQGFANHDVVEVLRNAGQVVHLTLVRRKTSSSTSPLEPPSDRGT

Inadl_8, Q8NI35 = target: Inadl_8, Q8NI35
Sequence of Inadl_8, Q8NI35 (Q8NI35 1425-1530): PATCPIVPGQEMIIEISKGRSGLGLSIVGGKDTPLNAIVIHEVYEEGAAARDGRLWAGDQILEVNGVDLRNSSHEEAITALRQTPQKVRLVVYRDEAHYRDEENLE

Inadl_9, Q8NI35 = target: Inadl_9, Q8NI35
Sequence of Inadl_9, Q8NI35 (Q8NI35 1530-1615): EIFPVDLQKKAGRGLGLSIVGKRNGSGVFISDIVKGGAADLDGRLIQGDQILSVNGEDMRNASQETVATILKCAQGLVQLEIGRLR

LIN7B, Q9HAP6 = target: T6, LIN7B, Q9HAP6
T6 sequence (Q9HAP6 88-185, limits assumed, looked up): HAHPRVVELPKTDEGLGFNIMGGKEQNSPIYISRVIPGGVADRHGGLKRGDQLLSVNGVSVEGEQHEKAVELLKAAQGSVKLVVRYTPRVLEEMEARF

LNX1_1, Q8TBB1 = target: LNX1_1, Q8TBB1
Sequence of LNX1_1, Q8TBB1 (Q8TBB1 261-371): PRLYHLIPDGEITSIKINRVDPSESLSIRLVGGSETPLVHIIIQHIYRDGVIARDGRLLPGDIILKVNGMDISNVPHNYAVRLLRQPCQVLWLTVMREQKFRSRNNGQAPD

LNX1_2, Q8TBB1 = target: LNX1_2, Q8TBB1
Sequence of LNX1_2, Q8TBB1 (Q8TBB1 371-470): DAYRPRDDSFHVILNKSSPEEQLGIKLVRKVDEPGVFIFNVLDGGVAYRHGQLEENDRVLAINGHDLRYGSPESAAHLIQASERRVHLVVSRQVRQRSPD

MAGI1_1, Q96QZ7 = target: MAGI1_1, Q96QZ7
Sequence of MAGI1_1, Q96QZ7 (Q96QZ7 1-106): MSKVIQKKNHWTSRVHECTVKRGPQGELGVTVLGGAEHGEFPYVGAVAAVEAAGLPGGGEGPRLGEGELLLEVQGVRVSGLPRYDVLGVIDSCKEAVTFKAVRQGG

MAGI2_4, Q86UL8 = target: MAGI2_4, Q86UL8
Sequence of MAGI2_4, Q86UL8 (Q86UL8 772-865): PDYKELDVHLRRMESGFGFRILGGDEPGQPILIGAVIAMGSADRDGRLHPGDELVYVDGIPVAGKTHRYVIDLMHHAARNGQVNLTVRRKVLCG

MAGI2_6, Q86UL8 = target: MAGI2_6, Q86UL8
Sequence of MAGI2_6, Q86UL8 (Q86UL8 1141-1229): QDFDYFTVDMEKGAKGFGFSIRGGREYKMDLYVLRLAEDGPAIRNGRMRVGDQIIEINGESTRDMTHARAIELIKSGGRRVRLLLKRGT

MPP2, Q14168 = target: T7, MPP2, Q14168
T7 sequence (Q14168 180-250, limits assumed, looked up): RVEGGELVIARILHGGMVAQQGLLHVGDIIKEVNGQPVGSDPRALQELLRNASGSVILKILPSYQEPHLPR

NHERF3_3, Q5T2W1 = target: T8, NHERF3_3, Q5T2W1
T8 sequence (Q5T2W1 238-333, limits assumed, looked up): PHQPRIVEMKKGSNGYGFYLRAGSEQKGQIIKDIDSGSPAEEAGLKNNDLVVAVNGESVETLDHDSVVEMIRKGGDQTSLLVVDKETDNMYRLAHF

NHERF4_4, Q86UT5 = target: NHERF4_4, Q86UT5
Sequence of NHERF4_4, Q86UT5 (Q86UT5 464-550): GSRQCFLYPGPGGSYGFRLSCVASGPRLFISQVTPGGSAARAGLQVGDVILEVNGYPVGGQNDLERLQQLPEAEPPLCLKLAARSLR

PTPN13_1, Q12923 = target: T9, PTPN13_1, Q12923
T9 sequence (Q12923 1088-1188, limits assumed, looked up): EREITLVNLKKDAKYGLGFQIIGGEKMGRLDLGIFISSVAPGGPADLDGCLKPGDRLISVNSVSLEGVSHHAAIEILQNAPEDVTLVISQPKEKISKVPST

SNTG1, Q9NSN8 = target: T10, SNTG1, Q9NSN8
T10 sequence (Q9NSN8 52-150, limits assumed, looked up): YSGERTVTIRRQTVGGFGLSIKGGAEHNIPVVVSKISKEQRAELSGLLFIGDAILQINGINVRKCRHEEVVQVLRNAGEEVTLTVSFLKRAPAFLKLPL

TJP1_3, Q07157 = target: TJP1_3, Q07157
Sequence of TJP1_3, Q07157 (Q07157 416-512): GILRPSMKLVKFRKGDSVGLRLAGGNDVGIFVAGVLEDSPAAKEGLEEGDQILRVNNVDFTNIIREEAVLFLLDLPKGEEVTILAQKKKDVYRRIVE

TJP3_3, O95049 = target: T11, TJP3_3, O95049
T11 sequence (O95049 375-456, limits assumed, looked up): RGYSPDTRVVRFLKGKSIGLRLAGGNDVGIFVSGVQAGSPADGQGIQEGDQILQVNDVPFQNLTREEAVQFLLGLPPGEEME

TX1BP3, O14907 = target: T12, TX1BP3, O14907
T12 sequence (O14907 10-122, limits assumed, looked up): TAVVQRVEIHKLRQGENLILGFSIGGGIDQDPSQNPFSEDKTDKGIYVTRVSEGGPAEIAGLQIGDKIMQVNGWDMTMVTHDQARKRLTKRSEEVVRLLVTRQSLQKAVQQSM

SSLQSLETSV [ATP2B4, P23634]
pKd (APBA1_1, Q02410): below the threshold
pKd (CASK, O14936): below the threshold
pKd (DLG3_1, Q92796): 4.35
pKd (DLG3_2, Q92796): 5.2
pKd (DLG3_3, Q92796): 4.73
pKd (DLG4_2, P78352): 5.18
pKd (FRMPD2_3, Q68DX3): below the threshold
pKd (GIPC2, Q8TF65): 4.16
pKd (GRIP1_2, Q9Y3R0): 3.58
pKd (Inadl_3, Q8NI35): 3.56
pKd (Inadl_8, Q8NI35): 3.54
pKd (Inadl_9, Q8NI35): below the threshold
pKd (LIN7B, Q9HAP6): 4.3
pKd (LNX1_1, Q8TBB1): 3.71
pKd (LNX1_2, Q8TBB1): 3.7
pKd (MAGI1_1, Q96QZ7): 3.71
pKd (MAGI2_4, Q86UL8): 4.19
pKd (MAGI2_6, Q86UL8): 4.55
pKd (MPP2, Q14168): below the threshold
pKd (NHERF3_3, Q5T2W1): below the threshold
pKd (NHERF4_4, Q86UT5): below the threshold
pKd (PTPN13_1, Q12923): 3.5
pKd (SNTG1, Q9NSN8): 5.08
pKd (TJP1_3, Q07157): below the threshold
pKd (TJP3_3, O95049): 3.71
pKd (TX1BP3, O14907): 4.62

RHTTSTETAV [HPV30-E6, P36809]
pKd (APBA1_1, Q02410): below the threshold
pKd (CASK, O14936): below the threshold
pKd (DLG3_1, Q92796): 4.45
pKd (DLG3_2, Q92796): 5.41
pKd (DLG3_3, Q92796): 4.66
pKd (DLG4_2, P78352): 5.45
pKd (FRMPD2_3, Q68DX3): 3.87
pKd (GIPC2, Q8TF65): 3.96
pKd (GRIP1_2, Q9Y3R0): 3.78
pKd (Inadl_3, Q8NI35): 3.77
pKd (Inadl_8, Q8NI35): 3.94
pKd (Inadl_9, Q8NI35): below the threshold
pKd (LIN7B, Q9HAP6): 3.71
pKd (LNX1_1, Q8TBB1): below the threshold
pKd (LNX1_2, Q8TBB1): 3.67
pKd (MAGI1_1, Q96QZ7): below the threshold
pKd (MAGI2_4, Q86UL8): 4.07
pKd (MAGI2_6, Q86UL8): 4.19
pKd (MPP2, Q14168): below the threshold
pKd (NHERF3_3, Q5T2W1): below the threshold
pKd (NHERF4_4, Q86UT5): below the threshold
pKd (PTPN13_1, Q12923): below the threshold
pKd (SNTG1, Q9NSN8): 4.94
pKd (TJP1_3, Q07157): below the threshold
pKd (TJP3_3, O95049): below the threshold
pKd (TX1BP3, O14907): 4.65

EVVHTPETSV [SLC16A3, O15427]
pKd (APBA1_1, Q02410): below the threshold
pKd (CASK, O14936): below the threshold
pKd (DLG3_1, Q92796): below the threshold
pKd (DLG3_2, Q92796): 4.08
pKd (DLG3_3, Q92796): 4.28
pKd (DLG4_2, P78352): 4.2
pKd (FRMPD2_3, Q68DX3): below the threshold
pKd (GIPC2, Q8TF65): below the threshold
pKd (GRIP1_2, Q9Y3R0): below the threshold
pKd (Inadl_3, Q8NI35): below the threshold
pKd (Inadl_8, Q8NI35): below the threshold
pKd (Inadl_9, Q8NI35): below the threshold
pKd (LIN7B, Q9HAP6): 3.61
pKd (LNX1_1, Q8TBB1): below the threshold
pKd (LNX1_2, Q8TBB1): below the threshold
pKd (MAGI1_1, Q96QZ7): below the threshold
pKd (MAGI2_4, Q86UL8): 3.55
pKd (MAGI2_6, Q86UL8): 4.14
pKd (MPP2, Q14168): below the threshold
pKd (NHERF3_3, Q5T2W1): below the threshold
pKd (NHERF4_4, Q86UT5): below the threshold
pKd (PTPN13_1, Q12923): below the threshold
pKd (SNTG1, Q9NSN8): 4.71
pKd (TJP1_3, Q07157): below the threshold
pKd (TJP3_3, O95049): below the threshold
pKd (TX1BP3, O14907): 3.84
